B1: scFv #7 (scFv)
scFv: SYELTQPPSMSVALGQTAKVTCQGDNLENFYVQWHQQKPGQAPVTVIFQDNKRPSGIPDRFSGSNSGNTATLTISGARTEDEADYYCQSGHSSIGGVFGSGTSLTVLGQPAAAGGGGSGGGGSGGGGSARQVQLQESGPSLVKPSQTLSLTCTVSGFSLTGNSVTWVRQAPGNVPEWLGGISRGGRTYYDTALKSRLSITRDTSKRQVSLSLSSVTTEDTAMYFCARSAYSTLYDYEYAADIYDWGPGLLVTVSSTSGAPVPYPDPLEPRAA
B2: ciB-B9 (VHH)
VHH: TGGGLVQAGGSLRLSCTASGRTSSFYALAWFRQGPGKEREFVAAIGWIDGSTRYTDSAKGRFTISRDAAKNTMYLQMNSLKPEDTAVYSCTARTQYGGSSADPKNYGYWGQGTQVTVSA
B3: ciB-H11 (VHH)
VHH: QVQLVETGGGLVQAGGSLRLSCAGSGRSFSAAVMGWFRQAPGKEREFVAALRQIIGSTHYADSVKGRFTISRDNAKNMLYLDMNSLKPTDTAAYYCTAGPPTMLDVSTDREYDTWGQGTQVTVSS

What was measured:
[1] = target: Botulinum neurotoxin serotype A1 (BoNT/A) holotoxin (Clostridium botulinum, UniProt P0DPI0); assay: method not stated
[2] = target: Botulinum neurotoxin serotype B (BoNT/B) holotoxin (Clostridium botulinum, UniProt P10844); assay: SPR; immobilised form of BoNT/B not stated

Row | Binder | Kd [1] | Kd [2]
1 | B1 | ~1 nM | 
2 | B2 |  | 23 nM
3 | B3 |  | 0.26 nM
